Data on two molecules can be found in article doi:10.1101/303123 (bioRxiv, 2018).

The target in experiment [1] is T1, XcpVW binary complex (XcpV (28-129) with XcpW (28-203)) (P. aeruginosa, UniProt Q00516 28-129; Q00517 28-203).
T1 sequence (looked up) 1: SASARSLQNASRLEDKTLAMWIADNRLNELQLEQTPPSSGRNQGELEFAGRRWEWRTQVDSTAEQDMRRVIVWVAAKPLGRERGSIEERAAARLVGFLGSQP
T1 sequence (looked up) 2: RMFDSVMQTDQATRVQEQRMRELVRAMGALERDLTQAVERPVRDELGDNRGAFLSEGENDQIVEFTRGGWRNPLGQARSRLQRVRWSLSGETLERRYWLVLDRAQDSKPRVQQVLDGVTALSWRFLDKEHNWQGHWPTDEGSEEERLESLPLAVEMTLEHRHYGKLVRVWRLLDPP
The experiment in a line: SEC + AUC.

The target in experiment [2] is T2, XcpX (29-313), soluble form of the minor pseudopilin XcpX (P. aeruginosa, UniProt Q00518 29-313).
T2 sequence (looked up): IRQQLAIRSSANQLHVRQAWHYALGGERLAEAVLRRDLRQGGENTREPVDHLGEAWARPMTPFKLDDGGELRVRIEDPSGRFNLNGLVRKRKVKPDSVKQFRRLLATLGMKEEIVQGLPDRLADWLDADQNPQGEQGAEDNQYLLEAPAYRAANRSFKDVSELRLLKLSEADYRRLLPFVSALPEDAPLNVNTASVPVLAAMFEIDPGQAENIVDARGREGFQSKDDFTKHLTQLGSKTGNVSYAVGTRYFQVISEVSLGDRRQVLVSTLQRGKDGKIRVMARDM
The experiment in a line: crystal structure.

B1: XcpU (29-172), soluble form of the minor pseudopilin XcpU (domain or fragment, P. aeruginosa, UniProt Q00515 29-172, looked up)
chain: STGFASTSRELDSEAERLAGLIGVLTDEAVLDNREYGLRLERDAYQVLRYDEAKARWLPVARDSHRLPEWAELTFELDGQPLVLAGSKGEKEQKKGTDQPQLLILSSGELSPFRLRLAERGPEGRALSLSSDGFRLPRVEVARR
Consider B1, for which the binding result in experiment [1] was “binds”.

B2: XcpV (28-129), soluble form of the minor pseudopilin XcpV (domain or fragment, P. aeruginosa, UniProt Q00516 28-129, looked up)
chain: SASARSLQNASRLEDKTLAMWIADNRLNELQLEQTPPSSGRNQGELEFAGRRWEWRTQVDSTAEQDMRRVIVWVAAKPLGRERGSIEERAAARLVGFLGSQP
In the case of B2, the binding result in experiment [2] is on record as “binds”.
